Patent publication US8546083B2, “Molecular accessibility assay” (University of Vermont, priority 2007, dated 2013)

Columns and labels:
[1] = Fluorescence of DAPI binding to double stranded DNA; conditions: 50 nM double stranded DNA, 100 nM DAPI, 10 mM Tris-HCl pH 8.0, 50 mM NaCl, 5 minutes room temperature
Method: (§1) For gel-based substrates, completed reactions were mixed with a dye-free SDS loading buffer (50 mM Tris-HCl (pH 6.8), 100 mM dithiothreitol, 4% SDS, 10% glycerol), heated to 90° C. for 5 minutes, separated by 12% SDS-PAGE, and visualized by PhosphorImager analysis (Bio-Rad Molecular Imager FX) (Bio-Rad Laboratories, Hercules, Calif.). For all other substrates, an equal volume of 200 nM DAPI in 10 mM Tris-HCl (pH 8.0) and 50 mM NaCl was added and incubated for 5 minutes at room temperature prior to fluorescence detection. Final concentrations of the fluorescence effecting molecules at the time of detection in these experiments were 100 nM DAPI, 50 nM substrate, and 25-800 nM enzyme.
(§2) Fluorescence readings were made on a Synergy HT Multi-Detection Microplate Reader (BIO-TEK) using a tungsten-halogen lamp and 360/40 bandpass excitation filter in conjunction with a 460/40 emission filter. Corning Half Area, NBS treated (Nonbinding Surface), Black, 96-well Microplates plates (Corning #3686) were used for all DAPI-based experiments. The combination of enzymes, DNA, and DAPI were all shown to contribute linearly to changes in the overall fluorescence based on the range of concentrations used; there was therefore no need to correct for the inner filter effect.
Each of the 4L, 5L, 5R, and N5R substrates, along with their non-damaged counterparts, were initially tested for their ability to associate with DAPI and thereby affect the detected fluorescence. […] In the absence of DNA, there was only a small increase in fluorescence from the addition of DAPI, as would be expected. The differences in fluorescence for each of the DAPI bound substrates are presumably due to both, sequence context and experimental variations in DNA concentration. For example, the 4L sequence is expected to have a lower total fluorescence due to the importance of the 3′ nucleotide following the 5′-AATT-3′ binding sequence in regards to fluorescence intensity (38). Due to the fact that the molecular accessibility assay is based on relative fluorescence, these differences are inconsequential.

4L substrate = assay: DAPI molecular accessibility assay, active fraction determination, 4L substrate; format: biochemical; conditions: for activity (100*α): 100 nM 4L substrate, 50 mM sodium borohydride; for active fraction / calculated α value: 4L sequence; for active fraction: NaBH4 and NaCNBH3
Method: (§3) Oligonucleotide substrates were purchased from Midland Certified Reagent Co. (Midland, Tex.) and were PAGE purified prior to use. All gel-based comparisons were performed with the following double stranded substrate: (35DHU) 5′-TET-tgtcaatagcaagnggagaagtcaatcgtgagtct-3′ (SEQ ID NO:1) where TET represents the fluorescent label 6-tetrachlorofluorescein and n=5,6-dihydrouracil (DHU). Molecular accessibility DAPI-based experiments were performed with the following double-stranded substrates: (4L) 5′-gccccgccaattnccgccgccgcc-3′ (SEQ ID NO:2), (5L) 5′-gccccgccaattcnccgccgccgcc-3′(SEQ ID NO:3), (5R) 5′-gccccgccgccccgccnaattccgccgccgcc-3′ (SEQ ID NO:4), and (N5R) 5′-gccccgccgccccgccncaattccgccgccgcc-3′ (SEQ ID NO:5) where n=either DHU for damaged substrates or cytosine for non-damaged controls. All complementary strands contained a G residue across from DHU (or across from the cytosine in controls—e.g. Watson-Crick base pairing) and were annealed in 50 mM Tris-HCl (pH 8.0), 50 mM NaCl by heating to 94° C. for 2 minutes and slowly cooling to 4° C. over the period of 1 hour in a Perkin Elmer DNA Thermal Cycler 480. In each case the ratio of damaged to complementary strand during annealing was 1:1.1. Note that the DAPI-based oligonucleotides all differ in location of the AT-rich region in relation to the damaged base.
(§4) EcoNth, EcoFpg, EcoNei, and NEIL1 were incubated for 30 minutes at 37° C. with 100 nM DHU:G-containing substrates at final concentrations of 50, 100, 200, 400, 800, 1200, or 1600 nM, in the presence of either 50 or 100 mM sodium borohydride (NaBH4) or sodium cyanoborohydride (NaCNBH3), as described in the Figures. Borohydride compounds were dissolved fresh for each independent experiment (one substrate and series of enzyme dilutions) as 1.25× stocks in Milli-Q water. Reactions were initiated by simultaneous addition of enzyme and borohydride solution to annealed substrates utilizing separate multi-pipettes in a 96-well format to a final volume of 100 μL. Except for EcoFpg trapping with sodium cyanoborohydride, the final buffer for each reaction contained 10 mM Tris-HCl (pH 8.0), 60 mM Na^+, and either 50 mM BH4^− or CNBH3^−. In the former case, the final buffer contained 10 mM Tris-HCl (pH 8.0), 110 mM Na^+, and 100 mM CNBH3^−.
as §1, §2
Given a sufficiently high concentration of trapping reagent, and a sufficiently long incubation time, the quantity of ES complex is related to the quantity of total enzyme added, ET, and total substrate added, ST, by the equation: ES=min(αET, βST) where α is the active enzyme fraction, P is the active substrate fraction (fraction cleavable), and min is the minimum function. […]

5L substrate = assay: DAPI molecular accessibility assay, active fraction determination, 5L substrate; format: biochemical; conditions: 5L sequence, NaBH4 and NaCNBH3
Method: (§5) Oligonucleotide substrates were purchased from Midland Certified Reagent Co. (Midland, Tex.) and were PAGE purified prior to use. All gel-based comparisons were performed with the following double stranded substrate: (35DHU) 5′-TET-tgtcaatagcaagnggagaagtcaatcgtgagtct-3′ (SEQ ID NO:1) where TET represents the fluorescent label 6-tetrachlorofluorescein and n=5,6-dihydrouracil (DHU). […]
as §1
(§6) Fluorescence readings were made on a Synergy HT Multi-Detection Microplate Reader (BIO-TEK) using a tungsten-halogen lamp and 360/40 bandpass excitation filter in conjunction with a 460/40 emission filter. […]

N5R substrate = assay: DAPI molecular accessibility assay, active fraction determination, N5R substrate; format: biochemical; conditions: N5R sequence; for calculated α value: NaBH4 and NaCNBH3
Method: as §3
EcoNth, EcoFpg, EcoNei, and NEIL1 were incubated for 30 minutes at 37° C. with 100 nM DHU:G-containing substrates at final concentrations of 50, 100, 200, 400, 800, 1200, or 1600 nM, in the presence of either 50 or 100 mM sodium borohydride (NaBH4) or sodium cyanoborohydride (NaCNBH3), as described in the Figures. […]
as §1
as §2, with “Corning Half Area, NBS treated (Nonbinding Surface), Black, 96-well Microplates plates (Corning #3686) were used for all DAPI-based experiments.” left out, “effect. […]” for “effect.”

35DHU substrate = assay: Gel-based Schiff base trapping assay (SDS-PAGE, PhosphorImager), active fraction determination; format: biochemical; conditions: for α value (active enzyme fraction): 100 nM 35DHU; for active fraction: gel-based, from α values with NaBH4 and NaCNBH3
Method: as §3, §4, §1
Given a sufficiently high concentration of trapping reagent, and a sufficiently long incubation time, the quantity of ES complex is related to the quantity of total enzyme added, ET, and total substrate added, ST, by the equation: ES=min(αET, βST) where α is the active enzyme fraction, P is the active substrate fraction (fraction cleavable), and min is the minimum function. Furthermore, holding ST constant while varying ET can be depicted graphically (FIG. 1A) where the rising slope is equivalent to α, the plateau is equivalent to ST*β, and the breakpoint is defined by the relation: ST=(α/β)ET. Therefore, by varying ET from below to well above the constant ST concentration, the active enzyme fraction can be determined by linear regression of all points falling below the ET breakpoint concentration. The decision to include or exclude a given point pre-breakpoint is simply made so as to minimize the root-mean squared deviation from both the pre-breakpoint regression and the post-breakpoint best-fit line with a slope of zero. […]

5R substrate = assay: DAPI molecular accessibility assay, active fraction determination, 5R substrate; format: biochemical; conditions: 5R sequence, NaBH4 and NaCNBH3
Method: as §5, §1, §6

[2] = NaCNBH3 (50 mM EcoNth, 100 mM EcoFpg), 30 minutes 37° C.
[3] = EcoNth range stated jointly for 4L, 5L, 5R

Q: With 5′-gccccgccaattcnccgccgccgcc-3′ [5L] as the molecule, how does the “FI (Fluorescence Intensity)” value [1] read?
A: The value was 65.9 ± 2.6 x10^−3.

Q: With 5′-gccccgccaattnccgccgccgcc-3′ [4L] as the molecule, how does the “FI (Fluorescence Intensity)” value [1] read?
A: The value was 55.2 ± 2.8 x10^−3.

Q: With “5′-gccccgccgccccgccnaattccgccgccgcc-3′ [5R]” as the molecule, how does the “FI (Fluorescence Intensity)” value [1] read?
A: Its value is 69.5 ± 2.9 x10^−3.

Q: For “5′-gccccgccgccccgccncaattccgccgccgcc-3′ [N5R]”, which “FI (Fluorescence Intensity)” value [1] is on record?
A: The value was 60.7 ± 3.0 x10^−3.

Q: With “NEIL1: human ortholog of endonuclease VIII, recent purification with good activity” as the molecule, how does the “activity (100*α)” value (4L substrate) read?
A: Its value is “over 50%”.

B1: EcoNth: Escherichia coli endonuclease III, purified recombinant enzyme preparation (protein, UniProt P0AB83 1-211, looked up)
Endonuclease III: MNKAKRLEILTRLRENNPHPTTELNFSSPFELLIAVLLSAQATDVSVNKATAKLYPVANTPAAMLELGVEGVKTYIKTIGLYNSKAENIIKTCRILLEQHNGEVPEDRAALEALPGVGRKTANVVLNTAFGWPTIAVDTHIFRVCNRTQFAPGKNVEQVEEKLLKVVPAEFKVDCHHWLILHGRYTCIARKPRCGSCIIEDLCEYKEKVDI
Q: For B1, which active fraction (5L substrate) is on record?
A: Its active fraction is 19-24%.

Q: And the active fraction (N5R substrate; NaBH4 (first value, figure order))?
A: The active fraction was “approximately 12%”.

Q: What about the “calculated α value” (N5R substrate) of the same molecule?
A: The value was “lower”.

Q: And the active fraction (N5R substrate; NaCNBH3 (second value, figure order))?
A: Its active fraction is ~16%.

Q: And the active fraction (4L substrate)?
A: The active fraction was 19-24%.

Q: And the “α value (active enzyme fraction)” value (35DHU substrate; 50 mM NaBH4, 30 minutes 37° C.)?
A: The value was 0.199.

Q: And the “α value (active enzyme fraction)” value (35DHU substrate; [2])?
A: The value was 0.206.

Q: And the active fraction (35DHU substrate)?
A: The active fraction was “approximately 20%”.

B2: EcoFpg: Escherichia coli formamidopyrimidine-DNA glycosylase, purified recombinant enzyme preparation (protein, UniProt P05523 2-269, looked up)
Formamidopyrimidine-DNA …: PELPEVETSRRGIEPHLVGATILHAVVRNGRLRWPVSEEIYRLSDQPVLSVQRRAKYLLLELPEGWIIIHLGMSGSLRILPEELPPEKHDHVDLVMSNGKVLRYTDPRRFGAWLWTKELEGHNVLTHLGPEPLSDDFNGEYLHQKCAKKKTAIKPWLMDNKLVVGVGNIYASESLFAAGIHPDRLASSLSLAECELLARVIKAVLLRSIEQGGTTLKDFLQSDGKPGYFAQELQVYGRKGEPCRVCGTPIVATKHAQRATFYCRQCQK
Q: With B2 as the molecule, how does the “calculated α value” (5L substrate; [3]) read?
A: Its value is “significantly lower”.

Q: What about the “calculated α value” (N5R substrate) of the same molecule?
A: Its value is “significantly lower”.

Q: What about the “calculated α value” (4L substrate; 50 mM NaBH4) of the same molecule?
A: Its value is 0.154.

Q: What about the “calculated α value” (4L substrate; 100 mM NaCNBH3) of the same molecule?
A: The value was 0.136.

Q: What about the active fraction (4L substrate) of the same molecule?
A: Its active fraction is “approximately 14%”.

Q: What about the “α value (active enzyme fraction)” value (35DHU substrate; 50 mM NaBH4, 30 minutes 37° C.) of the same molecule?
A: The value was 0.121.

Q: What about the “α value (active enzyme fraction)” value (35DHU substrate; [2]) of the same molecule?
A: Its value is 0.147.

Q: What about the active fraction (35DHU substrate) of the same molecule?
A: Its active fraction is “approximately 13%”.

Q: What about the active fraction (5R substrate) of the same molecule?
A: Its active fraction is ~11%.

Q: What about the “calculated α value” (5R substrate; [3]) of the same molecule?
A: The value was “slightly lower”.

B3: EcoNei: Escherichia coli endonuclease VIII, purification known to have little activity (protein, UniProt P50465 2-263, looked up)
Endonuclease 8: PEGPEIRRAADNLEAAIKGKPLTDVWFAFPQLKPYQSQLIGQHVTHVETRGKALLTHFSNDLTLYSHNQLYGVWRVVDTGEEPQTTRVLRVKLQTADKTILLYSASDIEMLTPEQLTTHPFLQRVGPDVLDPNLTPEVVKERLLSPRFRNRQFAGLLLDQAFLAGLGNYLRVEILWQVGLTGNHKAKDLNAAQLDALAHALLEIPRFSYATRGQVDENKHHGALFRFKVFHRDGEPCERCGSIIEKTTLSSRPFYWCPGCQH
Q: With B3 as the molecule, how does the “activity (100*α)” value (4L substrate) read?
A: The value was “less than 5%”.
